In ChEMBL document CHEMBL1132501, “Synthesis and anti-Helicobacter pylori activity of FR182024, a new cephem derivative” (1999):

Assays:
[1] = substrate: O=C(Cc1cccs1)N[C@@H]1C(=O)N2C(C(=O)[O-])=C(C[n+]3ccccc3)CS[C@H]12; test: The compound was tested against Bacteroides fragilis FP784 and its stability towards beta-lactamase relative to cephaloridine was evaluated; assay type: functional
[2] = substrate: O=C(Cc1cccs1)N[C@@H]1C(=O)N2C(C(=O)[O-])=C(C[n+]3ccccc3)CS[C@H]12; test: The compound was tested against Bacteroides fragilis FP784 and its stability towards beta-lactamase was evaluated; assay type: functional

B1: Beta-lactamase (Enterobacter cloacae), P05364 (protein)
chain: MMRKSLCCALLLGISCSALATPVSEKQLAEVVANTITPLMKAQSVPGMAVAVIYQGKPHYYTFGKADIAANKPVTPQTLFELGSISKTFTGVLGGDAIARGEISLDDAVTRYWPQLTGKQWQGIRMLDLATYTAGGLPLQVPDEVTDNASLLRFYQNWQPQWKPGTTRLYANASIGLFGALAVKPSGMPYEQAMTTRVLKPLKLDHTWINVPKAEEAHYAWGYRDGKAVRVSPGMLDAQAYGVKTNVQDMANWVMANMAPENVADASLKQGIALAQSRYWRIGSMYQGLGWEMLNWPVEANTVVEGSDSKVALAPLPVAEVNPPAPPVKASWVHKTGSTGGFGSYVAFIPEKQIGIVMLANTSYPNPARVEAAYHILEALQ
Vmax [1]: 1
Km [2]: 31.7 µg/mL
